{"source": "paper PMC6842305", "about": "(Journal of medicinal chemistry, 2018)", "biological_target": "Truncated WDR5 (Δ23, residues 22–334) (UniProt P61964 22-334)", "experiment": "NMR titration", "data": [{"binder": "Ac-ARTEVHLRKS-NH2", "note": "[MLL1 10mer peptide Ac-ARTEVHLRKS-NH2]", "values": [{"measurement": "binding result", "value": "binds"}]}]}
